The test deals with D-allulose 3-epimerase (DaeB) from Bacillus sp. KCTC 13219 (Bacillus sp. KCTC 13219). Kind of test: SEC; Superdex 200 Increase 10/300 GL, 50 mM Tris pH 8.0, 300 mM NaCl, 0.5 mL/min; calibrated with ribonuclease A, ovalbumin, conalbumin and aldolase; self-association of purified DaeB. (In general: Size exclusion chromatography separates by hydrodynamic size, large species first.)

The term stoichiometry N denotes the number of molecules, sites or subunits per partner or assembly. Regarding “D-allulose 3-epimerase (DaeB) from Bacillus sp. KCTC 13219 (enzyme)”, the stoichiometry N is 2.

The record behind these values is PMC7934257.
